Data as given in the nanobody polyreactivity screen of Harvey et al. (2022).

Experiment: yeast display, Sf9 membrane polyspecificity reagent, FACS + sequencing; frameworks hold sequencing errors
Procedure, shortened: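 Polyreactivity labels are assigned by the sorting gate from which each nanobody was recovered. The gates were low and high (top ~1%), set on anti-HA fluorescence for expression and streptavidin fluorescence for reagent binding. Before sorting, galactose-induced (36–48 hours) yeast display cells were stained for 1 hour at 4 °C with 10% biotinylated, detergent-solubilized Sf9 membrane reagent.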

| Sequence | polyreactivity (PSR sort gate) |
| --- | --- |
| QVQLVESGGGLVQAGGSLRLSCAASGRTFIFYAMGWYRPAPGNVRELVAAITLRGGGTDYADSVKGRFTISRDNAKNTVYLQMTSQQPEETAVYYCNADGYPVPRRFDPYSYLSDYWGQGTQVTVSS | low polyreactivity |
| QVQLVESGGGLVQAGGSLRLSCAASGSIFTLYAMGWYRQAPGKETELVAVISSSGGRTYYADSVKGRFTISRDNAKNTVYLQMNSLKPEDTAVYYGAARGYGATYDYWGQGTQVTVSS | high polyreactivity |
| QVQLVESGGGLVQAGGSLRLSCAASGSTFGPYAMGWYRQAPGKERELVAAIDKSGGSTYYADSVKGRFTISRDNAKNTVYLQMNSLKPEDTAVYYCAVEKRYPRRRYDYWGQGTQVTVSS | low polyreactivity |
| QVQLVESGGGLVQAGGSLRLSFAASARTFYIYPMGWYRQAPGKERELVAAITYGGGRTFYADSVKGRFTISRDNANNTVYLQMNSLKPEDTAVYYCAATVRGKRSTYDYWGQGTQVTVSS | high polyreactivity |
| QVQLVESGGGLVQAGGSLRLSCAATGSIFNVNAMGWYRQAPGKERELVAAISSGGDTYYADSVKGRFTISRDNAKNTVYIQMNSLQPEDTAVYYCAKQSYTLYTLLYDYWGQGTQVTVSS | low polyreactivity |
| QVQLVESGGGLVQAGGSHRLSCAASGFTIVQYAMGWYRQAPGKERELVARISRNGGSTYYADSVKGRFTISRDNAKNTVYLQMNSLKPEDTAVYYCNALRGPVKYYSWGQGTQVTVSS | low polyreactivity |
| QVQLVESGGGLVQAGGSLRLSCAAYGSTFSRYAMGWYRQAPGKERELVAAISWGGNTYYADSVKGRFTISRDNAKNTVYLQMNSLKPEDTAVYYCASVGGRFFAPYIWSVDSYDYWGQGTQVTVSS | high polyreactivity |
| QVQLVESGGGLVQAGGSLRLSCAASGFTFLTNAMGWYRQAPGKERELVAAISSGGNTNYADSVKGRFTISRDNAKNTVYLQMNSLKPEDTAVYYCAADNDYLSSQVSYDYWGQGTQVTVSS | low polyreactivity |
| QVQLVESGGGLVQAGGSLRLSCAASGRTFNIYAMGWYRQAPGKERELVAAITFTGGNTYYADSVKGRFTISRDNAKNTVYLQMNSLKPEDTAVYYCNKRLKWRSYDYWGQGTQVTVSS | low polyreactivity |
| QVQLVESGGGLVQAGGSLRLICDASGLTFIRNAMGCYRQATGKERELVAAITRRGGSTYYADSVKGRFTISRDNAKNTVYLQMHSLQPEDTPVDYCARRLYPSASYDYDYWGQGTQETVSS | high polyreactivity |
| QVQLVESGGGLVQAGGSLRLSCAASGGILDTYAMGWYRQAPGKERELVAAITSGGNTNYADSVKGRFTISRDNAKNTVYLQMNSLKPEDTAVYYCNVVTWYYVFRPWEYDYWGQGSQVTVSS | low polyreactivity |
| QVQLVESGGGLVQAGGSLRLSCAASGRTFHEYAMGWYRQAPGTERELVADISDGGSTNYADSVKGRFTISRDNAKNTVYLQMNSLKPEDTAVYYCNTDVPSAQYDYWGQGTQVTVSS | low polyreactivity |
| QVQLVESWGGLVQAGGSLRLSCAASGRIFSYYAMGWYRQAPGKERELVAAISRTGGTTYYADSVKGRFTISRDNAKNTVYLQMNSLKPEDTAVYYCNAVKAPYLRYDYWGQGTQVTVSS | high polyreactivity |
| QVQLVESGGGLVQAGGSLRLSCAASGSIFGTNAMGWYRQAPGKERELVAAITGRGGSTYYADSVKGRFTISRDNAKNTVYLQMNSLKPEDTAVYYCAVKISTYTYGYWGQGTQVTVSS | high polyreactivity |
| QVQLVESGGGLVQAGGSLRLSCAASGITFTAYAMGWYRQAPGKERELVATINSTGITNYADSVKGRFTISRDNAKNTVYLQMNSLNPEDTAVYYCAADLLDISSYDGMDYWGQGTQVTVSS | low polyreactivity |
| QVQLVESGGGLVQAGGSLRLSCAASGRYAMGWYRQAPGKVRELVAAISDSDGSTYYADSVKGRFTISRDNAKTNVYLQMNSLKPEDTAVNYCDARSIVRFDSWGQGTQVTVSS | low polyreactivity |
| QVQLVESGGGLVQAGGSLRLSCAASGRTYGHDTMGWYRQAPGKERELVARISRTGSTKYADSVKGRFTISRDNAKNTVYLQMNCLTPEDTAVYYCARVQAGGYGERVYAYHFDYWGQGTQVTVSS | high polyreactivity |
| QVQLVESGGGLVQAGGSLRLSCAASGRTSYTNAMGWYRQAPGKERELVAAINYSGGSTYYADSVKGRFTISRDNAKNTVYLQMNSLKPEDTAVSYCAAERYYWYTEMGYWGQGTQVTVSS | high polyreactivity |
| QVQLVESGGGVVQAGGRLRLSCAASGRILPFYAMGWYRQETGKERELVPGITTGTSTTYADSVNGRFTISRDNAKNTVYFQMHSLKPEDTAVYYCNTLVVPYTDFNTSYNVDYWGQGTQVTVSS | low polyreactivity |
| QVQLVESGVGLVQAGGSLRLSCAASGSIFGYNDMGWYRQAPGKERELVAVITSGGSTNYADSVKGRFTISRDNAKNTVYLQMNSLKPEDTAVYYCNAEGVFGDGRSGFYWYDYWGQGTQVTVSS | low polyreactivity |
| QVQLVESGGGLVQPGGSLRLSCAASGIIFSFYTIGWDRQEPGKEMELVAAISSSGGRTFYADSVKGRFTISRDNAKNTVYLQMNSLKPEDTAVYYCYAAHTREYYWGQGTQVTLSS | high polyreactivity |
| QVQLVESGGGLVQAGGSLRLICAASGRIFRHYAMGWYRQAPGKEREFVAAISRSGGSTYYADSVKGRFTISRDNAKNTVYLQMHSLKPEDTAVYYCYARHRYTGIRFFQPYDYWGQGTQVTVSS | low polyreactivity |

| Sequence | polyreactivity (PSR sort gate) |
| --- | --- |
| QVQLEESGGGLVQAGGSLRLSCAASGFTFPTNAMGWYRQAPGKERELVATISLGAGSTHYADSVKGRFTISRDNAKNTVYLQMNSLKPEDTAVYYCAARSRRWYDYDYWGQGTQVTVSS | low polyreactivity |
| QVQLVESGGGLVQAGGSLRLTCAASGFIFHRYAMGWYRQAPGKERELVAAITLNGGSTYYADSVKGRFTISRDNAKNTVYLQLNSLKPEDTAVYYCNAGWPWYVGGYYYWGQGTQVTVSS | low polyreactivity |
| QVQLVESGGGLVQAGGSLRLSCAASGRIFPWNTMGWYRQAPGKERELVAGINNGDRTYYADSVKGRFTISRDNAKNTVYLQMNSLKPEDTAVYYCAVDTWYFLFQYGYYQEGDYWGQGTQVTVSS | low polyreactivity |
| QVQLVESGGGLVQAGGSLSLSCAASGSTFVIYAMGWYRQAPGKERELVASIRGRTGSTYNADSVKGRFTISRDNAKNTVYLQMNSLKPEDTAVYYCAAKPGYKSKMDYWGQGTQVSVSS | high polyreactivity |
| QVQLQESGGGLVQAGGRLRLSCAASGYISTFSSEMGWYRQAPGKERELVASIAPGCTTSYADSVKGRFTISRDYAKNTEFLQMNSLKPEDTAVYYCAVDYTVPASFGYWGQGSQVTVSS | high polyreactivity |
| QVQLVESGGGLVQAGGSLRLSCAASGRIFRYYAMGWYRQAPGKERELVAAISGTGGNTYYADSVKGRSTISRDNAKNTVYLQMNSLKPEDTAVYYCAADQEWYYYFDSFAYYILDYWGQGTQVTVSS | high polyreactivity |
| QVQLVESGGGLVQAGGSLRLICAASGSNFWGNTMGWYRQAPGKERELVATISRRGGSTNYADSVKGRFTISRDNAKNTVYLQMNSLKPEDTAVYYCAAVTIYRSYRGNPYYYWGQGTQVTVSS | high polyreactivity |
| QVQLVESGGGLVQAGGSLRLSCAASGSTFQYNAKGWYRQAPGKERELVAAISSGGSTYYADSVKGRFTISRDNAKNTVYLQMNSLKPEDTAVYYCNALSRRQNWAGEVYYWGQGTQVTVSS | high polyreactivity |
| QVQLVESGGGLVQAGGSLRLSCAASGFTFRRYAMGWYRQAPGKERELVAAISLRSGRTNYADSVKGRFTISRDNAKNTVYLQMNSLKPEDTAVYYCAAGLYGKRAGTSYGYDYWGQGTQVTVSS | high polyreactivity |
| QVQLVESGGGLVQAGGSLRLSCAASGRTFLIYAMGWSRPAPGKERELVAAINFSGGNTYNADSVKGRFTISRDNAKHTVYLQMNSLKPEDTAVYYCAAGVYSFRYDYWGQGTQVTVSS | low polyreactivity |
| QVQIVESGGGLVQAGGSLRLSCAASGRTFVTYAMGWYRQAPGKERELVAAISRRGGSTYYADSVKGRFTISRDNAKNTVYLQMNSLKPEDTAVYYCAADPTYRTKFGYWGQGTQVTVSS | high polyreactivity |
| QVQLVETGGGLVQAGGSLRLSCAASGFIFPIYAMGWYRQATGKERELVAVISGSGGSTYYADSVKGRFTISRDNAKNTVYLQMNSLKPEDTAVYYCAARGRNVAGYKGGYWGQGTQVTVSS | low polyreactivity |
| QVQLGESGGGLVQAGGSLRLSCAPSGNNFVGNAMGWCRQAAGKERELVAAIRRSGGTTYYADSVKGRFTISRDNAKNTVYLQMNSLKPEDTAVYYCAASRPYQGDYWGQGTQVTVSS | low polyreactivity |
| QVQLVESGGGLVLAGGSLRLSCAASGRIFTNNVMGWYRQAPGKERELVAAISRSGGRTYYADSVKGRFTISRDNAKNTVYLQMNSLKPEDTAVYYCAAVYQKAATDKYESVYESYYWGQGTQVTVSS | high polyreactivity |
| QVQLQESGGGLVQAGGSLRLSCAASGSIFDGFNMGWYRQAPGKEREFVAAISYGASTYYADSVKGRFTVSRDNAKNSVYLQMNILKPEDTAVYYCAVVPSDGNLFSYWGQGTQVTVSS | low polyreactivity |
| QVQLVESGGGLVQAGGSLRLSCAASGFIYNTKGWYRQAPGKERELVAAISRSGGSTDYADSVKGRFTISRDNAKNTVYLQMTSLKPEDTAVYYCAARRPYRDGYDYWGQGTQVTVSS | high polyreactivity |
| QGQLVESGGGLVQAGGSLRLSCAASGFTFSYNVMGWYRQAPGKERELVPAINWSGGRTYYADSVKGRFTISRDNAKNTVYLQMNSLKPEDTAVYYCAARVYRGTARLIYDYWGQGTQVTVSS | high polyreactivity |
| QVQLVESGGGLVQAGGSLRLSCAASGFTFSSYAMGGYRQAPGKERELVAAISSNGRTYYADSVKGRFTISRDNAKNTVYLQMNSQKREDTAVYYCARNIPVSYYRYGYWGQGTQVTVSS | high polyreactivity |
| QVQVVESGGGLVQAGGSLRLSCAASGRTFGPYAMGWFRQAPGKEREFVAAISYSGGSTYYADSVKWRFTISRDNAKNTVYLQMNSLKPEDTAVYYCAAEGDYYDFISPPLDYWGQGTQVTVAS | low polyreactivity |
| QVQLVESGGGLVQAGGSLRLSCAASGSTFAWYDMGWYRQAPGNEREFVAAIDYGGGSTYADSVKGRFTISRDKEKNTVYLQMNSLKPEDTAVYYCNADNWVYLYDYWGQGTQVTVSS | low polyreactivity |
| QVQLVESGGGLVQAGGSLRLSCAASGRTFVYYVMGWYRQAPGKERELVAGISRGGSTDYADSVKGRFTISRDNAKNTVYLQMNSLKPEDTAVYYCNRLLRRHLYIFYYWGQGTQVTVSS | high polyreactivity |
